Data from publication PMC3115401 (Traffic (Copenhagen, Denmark), 2011).

How the values were obtained:
GST-Rtt109 = biological target: T1, GST-Rtt109 (S. cerevisiae, UniProt Q07794 1-436); experiment: pull-down
T1 sequence (looked up): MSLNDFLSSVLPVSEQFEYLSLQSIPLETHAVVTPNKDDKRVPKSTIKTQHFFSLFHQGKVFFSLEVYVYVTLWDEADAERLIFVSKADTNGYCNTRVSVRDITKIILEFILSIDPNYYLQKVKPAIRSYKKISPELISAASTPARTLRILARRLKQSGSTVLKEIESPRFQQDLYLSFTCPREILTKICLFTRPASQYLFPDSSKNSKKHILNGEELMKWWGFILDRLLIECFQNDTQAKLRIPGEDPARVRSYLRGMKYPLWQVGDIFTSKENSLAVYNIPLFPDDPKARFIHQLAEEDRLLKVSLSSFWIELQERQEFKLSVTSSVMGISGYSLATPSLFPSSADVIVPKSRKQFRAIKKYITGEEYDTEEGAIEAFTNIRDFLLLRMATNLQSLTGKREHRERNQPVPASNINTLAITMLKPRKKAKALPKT

GST-Kap60 = biological target: T2, GST-Kap60 (S. cerevisiae, UniProt Q02821 1-542); experiment: pull-down
T2 sequence (looked up): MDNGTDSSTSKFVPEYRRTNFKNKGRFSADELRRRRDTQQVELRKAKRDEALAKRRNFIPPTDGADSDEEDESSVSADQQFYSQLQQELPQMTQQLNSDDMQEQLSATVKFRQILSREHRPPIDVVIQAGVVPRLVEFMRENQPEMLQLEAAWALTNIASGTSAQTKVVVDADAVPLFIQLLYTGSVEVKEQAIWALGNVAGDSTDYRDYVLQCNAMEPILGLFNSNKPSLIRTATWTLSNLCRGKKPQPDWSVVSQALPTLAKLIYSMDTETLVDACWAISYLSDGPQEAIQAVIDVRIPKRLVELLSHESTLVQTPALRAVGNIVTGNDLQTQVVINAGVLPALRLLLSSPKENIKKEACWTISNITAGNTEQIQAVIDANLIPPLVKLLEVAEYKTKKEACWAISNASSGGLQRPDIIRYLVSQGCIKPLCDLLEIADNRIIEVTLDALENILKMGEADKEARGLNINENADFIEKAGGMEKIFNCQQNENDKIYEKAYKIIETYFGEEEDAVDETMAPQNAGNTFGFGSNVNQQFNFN

B1: MBP-Vps75(1–222) (domain or fragment, S. cerevisiae, UniProt P53853 1-222, looked up)
chain: MMSDQENENEHAKAFLGLAKCEEEVDAIEREVELYRLNKMKPVYEKRDAYIDEIAEFWKIVLSQHVSFANYIRASDFKYIDTIDKIKVDWLALESEMYDTRDFSITFHFHGIEGDFKEQQVTKVFQIKKGKDDQEDGILTSEPVPIEWPQSYDSINPDLIKDKRSPEGKKKYRQGMKTIFGWFRWTGLKPGKEFPHGDSLASLFSEEIYPFCVKYYAEAQRD
Does B1 bind (GST-Rtt109)?
Result: binds

B2: MBP-Vps75 wild type (natural protein, S. cerevisiae, UniProt P53853 1-264, looked up)
chain: MMSDQENENEHAKAFLGLAKCEEEVDAIEREVELYRLNKMKPVYEKRDAYIDEIAEFWKIVLSQHVSFANYIRASDFKYIDTIDKIKVDWLALESEMYDTRDFSITFHFHGIEGDFKEQQVTKVFQIKKGKDDQEDGILTSEPVPIEWPQSYDSINPDLIKDKRSPEGKKKYRQGMKTIFGWFRWTGLKPGKEFPHGDSLASLFSEEIYPFCVKYYAEAQRDLEDEEGESGLSADGDSEDDDGSLGEVDLPLSDEEPSSKKRKV
Does B2 bind (GST-Rtt109)?
Result: binds

Does B2 bind (GST-Kap60)?
Result: binds

B3: MBP-Vps75(K260G, K261G) (natural protein, S. cerevisiae, UniProt P53853 1-264, looked up)
chain: MMSDQENENEHAKAFLGLAKCEEEVDAIEREVELYRLNKMKPVYEKRDAYIDEIAEFWKIVLSQHVSFANYIRASDFKYIDTIDKIKVDWLALESEMYDTRDFSITFHFHGIEGDFKEQQVTKVFQIKKGKDDQEDGILTSEPVPIEWPQSYDSINPDLIKDKRSPEGKKKYRQGMKTIFGWFRWTGLKPGKEFPHGDSLASLFSEEIYPFCVKYYAEAQRDLEDEEGESGLSADGDSEDDDGSLGEVDLPLSDEEPSSGGRKV
Does B3 bind (GST-Rtt109)?
Result: binds
